Columns and labels:
Experiment in all cases: Kinase Profiling Assay
Assay type in all cases: biochemical
Settings in all cases: 100 μM
AMPKα1 (h) = AMPKα1 (h) (Homo sapiens, UniProt Q13131)
Procedure: (§1) Every kinase activity measurement was conducted in duplicate.
(§2) Specifically, in these assays, a positively charged substrate is phosphorylated with a radiolabeled phosphate group from an ATP if the kinase is not inhibited by an inhibitor peptide. The positively charged substrate then is attracted to a negatively charged filter membrane, quantified with a scintillation counter, and compared to a 100% activity control.
(§3) In addition to determining the IC50 of the compound, the specificity of MK2 inhibitory peptides was assessed by examining activities of all 266 human kinases available for testing in the Millipore kinase profiling service (Table 1).

FGFR4 (h) = FGFR4 (h) (Homo sapiens, UniProt P22455)
Procedure: as §1, §2, §3

Fer (h) = Fer (h) (Homo sapiens, UniProt P16591)
Procedure: as §1, §2, §3

Fyn (h) = target: T1, Fyn (h) (Homo sapiens, UniProt P06241)
T1 construct: purchased Millipore
T1 sequence (P06241 whole entry): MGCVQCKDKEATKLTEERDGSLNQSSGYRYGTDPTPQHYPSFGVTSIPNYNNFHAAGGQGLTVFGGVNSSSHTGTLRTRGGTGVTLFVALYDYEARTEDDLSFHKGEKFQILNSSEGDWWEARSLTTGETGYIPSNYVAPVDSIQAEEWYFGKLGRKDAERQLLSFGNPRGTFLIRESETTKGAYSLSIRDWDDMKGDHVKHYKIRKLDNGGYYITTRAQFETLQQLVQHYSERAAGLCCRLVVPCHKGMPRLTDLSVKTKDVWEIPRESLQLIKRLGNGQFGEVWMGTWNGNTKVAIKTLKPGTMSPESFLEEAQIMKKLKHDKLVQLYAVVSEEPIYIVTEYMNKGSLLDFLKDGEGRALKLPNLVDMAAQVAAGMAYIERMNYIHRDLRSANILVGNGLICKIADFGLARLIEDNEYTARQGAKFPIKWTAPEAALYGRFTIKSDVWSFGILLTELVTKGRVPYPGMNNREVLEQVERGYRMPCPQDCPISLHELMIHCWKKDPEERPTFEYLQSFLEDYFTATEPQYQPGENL
Procedure: as §1, §2, §3

Itk (h) = target: T2, Itk (h) (Homo sapiens, UniProt Q08881)
T2 construct: purchased Millipore
T2 sequence (Q08881 1-620): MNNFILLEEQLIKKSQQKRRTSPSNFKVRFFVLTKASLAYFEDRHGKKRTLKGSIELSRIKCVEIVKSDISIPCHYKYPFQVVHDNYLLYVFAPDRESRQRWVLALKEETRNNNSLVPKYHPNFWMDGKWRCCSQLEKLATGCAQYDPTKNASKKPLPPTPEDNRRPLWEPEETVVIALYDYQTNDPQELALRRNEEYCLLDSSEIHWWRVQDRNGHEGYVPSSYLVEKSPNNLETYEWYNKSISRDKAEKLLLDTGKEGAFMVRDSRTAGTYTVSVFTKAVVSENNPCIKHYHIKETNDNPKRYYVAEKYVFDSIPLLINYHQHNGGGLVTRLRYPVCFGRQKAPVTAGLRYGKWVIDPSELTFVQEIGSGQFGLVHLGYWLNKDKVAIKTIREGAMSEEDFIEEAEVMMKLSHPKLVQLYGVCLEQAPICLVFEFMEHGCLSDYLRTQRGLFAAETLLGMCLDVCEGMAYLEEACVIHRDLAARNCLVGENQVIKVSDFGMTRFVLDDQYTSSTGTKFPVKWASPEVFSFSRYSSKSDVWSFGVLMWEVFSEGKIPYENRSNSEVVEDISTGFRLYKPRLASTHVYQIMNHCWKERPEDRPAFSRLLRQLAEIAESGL
Procedure: as §1, §2, §3

NEK7 (h) = target: T3, NEK7 (h) (Homo sapiens, UniProt Q8TDX7)
T3 construct: purchased Millipore
T3 sequence (Q8TDX7 whole entry): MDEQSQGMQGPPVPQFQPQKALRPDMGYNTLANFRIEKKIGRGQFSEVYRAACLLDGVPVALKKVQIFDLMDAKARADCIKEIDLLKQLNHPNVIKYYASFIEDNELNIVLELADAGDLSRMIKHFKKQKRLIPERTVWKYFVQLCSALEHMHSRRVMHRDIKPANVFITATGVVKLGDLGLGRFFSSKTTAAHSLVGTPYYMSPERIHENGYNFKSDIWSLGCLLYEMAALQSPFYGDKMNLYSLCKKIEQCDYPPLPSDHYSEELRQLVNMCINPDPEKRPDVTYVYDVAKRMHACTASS
Procedure: as §1, §2, §3

PKCγ (h) = target: T4, PKCγ (h) (Homo sapiens, UniProt P05129)
T4 construct: purchased Millipore
Procedure: as §1, §2, §3

RIPK2 (h) = RIPK2 (h) (Homo sapiens, UniProt O43353)
RIPK2 (h), sequence (O43353 whole entry): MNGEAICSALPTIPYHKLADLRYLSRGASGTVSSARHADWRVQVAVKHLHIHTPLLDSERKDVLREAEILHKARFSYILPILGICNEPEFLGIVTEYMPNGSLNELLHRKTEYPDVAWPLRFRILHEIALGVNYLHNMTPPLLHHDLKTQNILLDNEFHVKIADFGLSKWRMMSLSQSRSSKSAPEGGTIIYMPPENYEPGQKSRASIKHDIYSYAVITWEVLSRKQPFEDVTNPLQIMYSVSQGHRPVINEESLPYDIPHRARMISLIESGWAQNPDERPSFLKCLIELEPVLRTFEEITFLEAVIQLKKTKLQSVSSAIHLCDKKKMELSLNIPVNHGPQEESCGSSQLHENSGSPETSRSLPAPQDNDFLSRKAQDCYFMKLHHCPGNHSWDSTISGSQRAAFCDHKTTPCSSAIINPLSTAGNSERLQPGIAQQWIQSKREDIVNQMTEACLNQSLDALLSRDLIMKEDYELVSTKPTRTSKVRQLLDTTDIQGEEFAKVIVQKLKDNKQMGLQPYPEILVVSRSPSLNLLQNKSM
Procedure: as §1, §2, §3

ROCK-II (h) = ROCK-II (h) (Homo sapiens, UniProt O75116)
ROCK-II (h), sequence (O75116 whole entry): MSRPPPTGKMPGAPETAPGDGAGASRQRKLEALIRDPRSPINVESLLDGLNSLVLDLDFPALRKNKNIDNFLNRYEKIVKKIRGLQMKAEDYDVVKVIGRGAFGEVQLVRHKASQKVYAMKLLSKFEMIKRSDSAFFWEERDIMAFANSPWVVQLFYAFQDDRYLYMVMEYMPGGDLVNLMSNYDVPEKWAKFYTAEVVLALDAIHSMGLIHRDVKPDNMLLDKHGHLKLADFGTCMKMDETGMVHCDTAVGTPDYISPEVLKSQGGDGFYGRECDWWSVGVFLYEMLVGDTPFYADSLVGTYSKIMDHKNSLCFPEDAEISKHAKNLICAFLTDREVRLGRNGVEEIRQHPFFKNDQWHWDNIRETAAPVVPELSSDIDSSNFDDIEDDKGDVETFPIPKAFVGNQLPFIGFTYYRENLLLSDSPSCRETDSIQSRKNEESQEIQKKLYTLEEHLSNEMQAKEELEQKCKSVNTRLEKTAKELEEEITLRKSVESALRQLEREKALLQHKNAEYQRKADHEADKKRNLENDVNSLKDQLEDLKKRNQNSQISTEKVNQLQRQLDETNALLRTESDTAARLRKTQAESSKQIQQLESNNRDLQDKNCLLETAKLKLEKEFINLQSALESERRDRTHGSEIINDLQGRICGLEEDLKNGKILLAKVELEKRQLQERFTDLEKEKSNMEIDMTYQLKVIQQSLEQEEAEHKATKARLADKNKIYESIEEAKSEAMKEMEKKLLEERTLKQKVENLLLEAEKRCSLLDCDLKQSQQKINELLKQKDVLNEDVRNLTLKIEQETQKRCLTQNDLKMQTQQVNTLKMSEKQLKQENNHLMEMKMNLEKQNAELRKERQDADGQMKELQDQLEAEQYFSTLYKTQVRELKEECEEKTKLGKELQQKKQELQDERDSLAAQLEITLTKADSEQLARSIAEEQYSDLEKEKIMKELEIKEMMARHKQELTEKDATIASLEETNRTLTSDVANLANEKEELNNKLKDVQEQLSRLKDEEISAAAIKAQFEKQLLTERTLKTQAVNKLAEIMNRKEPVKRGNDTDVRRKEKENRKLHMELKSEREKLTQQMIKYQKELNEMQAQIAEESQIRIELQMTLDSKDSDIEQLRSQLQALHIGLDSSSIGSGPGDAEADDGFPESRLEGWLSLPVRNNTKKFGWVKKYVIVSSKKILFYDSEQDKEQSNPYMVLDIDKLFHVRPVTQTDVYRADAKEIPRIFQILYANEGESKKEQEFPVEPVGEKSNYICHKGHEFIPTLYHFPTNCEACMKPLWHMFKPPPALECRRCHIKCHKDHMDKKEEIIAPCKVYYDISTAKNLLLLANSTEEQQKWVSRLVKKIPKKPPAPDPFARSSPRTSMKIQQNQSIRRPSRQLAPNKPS
Procedure: as §1, §2, §3

TrkB (h) = TrkB (h) (Homo sapiens, UniProt Q16620)
Procedure: as §1, §2, §3

ULK2 (h) = target: T5, ULK2 (h) (Homo sapiens, UniProt Q8IYT8)
T5 sequence (Q8IYT8 1-1036): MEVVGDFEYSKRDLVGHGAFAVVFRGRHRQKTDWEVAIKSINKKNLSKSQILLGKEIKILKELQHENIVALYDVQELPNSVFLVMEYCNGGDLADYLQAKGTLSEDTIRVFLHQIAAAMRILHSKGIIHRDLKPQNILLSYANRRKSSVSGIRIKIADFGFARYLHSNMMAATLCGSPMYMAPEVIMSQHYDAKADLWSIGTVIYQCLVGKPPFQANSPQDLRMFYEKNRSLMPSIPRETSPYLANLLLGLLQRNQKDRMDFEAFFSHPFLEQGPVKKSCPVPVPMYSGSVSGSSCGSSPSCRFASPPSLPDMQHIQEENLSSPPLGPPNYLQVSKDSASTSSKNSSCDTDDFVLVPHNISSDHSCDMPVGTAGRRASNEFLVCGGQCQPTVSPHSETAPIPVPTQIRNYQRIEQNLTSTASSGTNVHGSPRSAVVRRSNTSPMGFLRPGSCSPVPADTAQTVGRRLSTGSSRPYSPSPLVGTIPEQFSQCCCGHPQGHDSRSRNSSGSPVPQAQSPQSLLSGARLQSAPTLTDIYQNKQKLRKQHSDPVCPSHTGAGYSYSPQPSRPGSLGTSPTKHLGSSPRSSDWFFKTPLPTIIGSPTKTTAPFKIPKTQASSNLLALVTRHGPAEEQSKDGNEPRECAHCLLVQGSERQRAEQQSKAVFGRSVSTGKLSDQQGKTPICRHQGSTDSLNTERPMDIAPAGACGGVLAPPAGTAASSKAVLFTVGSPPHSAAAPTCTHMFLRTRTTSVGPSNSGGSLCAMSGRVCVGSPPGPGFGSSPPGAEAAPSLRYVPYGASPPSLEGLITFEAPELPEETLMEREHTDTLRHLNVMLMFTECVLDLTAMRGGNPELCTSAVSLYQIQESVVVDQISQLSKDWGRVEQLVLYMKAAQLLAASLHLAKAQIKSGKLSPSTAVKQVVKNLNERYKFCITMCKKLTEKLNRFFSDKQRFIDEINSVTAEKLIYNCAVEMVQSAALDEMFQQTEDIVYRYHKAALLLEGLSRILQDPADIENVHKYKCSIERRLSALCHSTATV
Procedure: as §1, §2, §3

Ret(V804M) (h) = Ret(V804M) (h) (Homo sapiens, UniProt P07949, V804M)
Procedure: as §1, §2, §3

eEF-2K (h) = target: T6, eEF-2K (h) (Homo sapiens, UniProt O00418)
T6 construct: purchased Millipore
Procedure: as §1, §2, §3

AMPKα1 (h), sequence (Q13131 whole entry): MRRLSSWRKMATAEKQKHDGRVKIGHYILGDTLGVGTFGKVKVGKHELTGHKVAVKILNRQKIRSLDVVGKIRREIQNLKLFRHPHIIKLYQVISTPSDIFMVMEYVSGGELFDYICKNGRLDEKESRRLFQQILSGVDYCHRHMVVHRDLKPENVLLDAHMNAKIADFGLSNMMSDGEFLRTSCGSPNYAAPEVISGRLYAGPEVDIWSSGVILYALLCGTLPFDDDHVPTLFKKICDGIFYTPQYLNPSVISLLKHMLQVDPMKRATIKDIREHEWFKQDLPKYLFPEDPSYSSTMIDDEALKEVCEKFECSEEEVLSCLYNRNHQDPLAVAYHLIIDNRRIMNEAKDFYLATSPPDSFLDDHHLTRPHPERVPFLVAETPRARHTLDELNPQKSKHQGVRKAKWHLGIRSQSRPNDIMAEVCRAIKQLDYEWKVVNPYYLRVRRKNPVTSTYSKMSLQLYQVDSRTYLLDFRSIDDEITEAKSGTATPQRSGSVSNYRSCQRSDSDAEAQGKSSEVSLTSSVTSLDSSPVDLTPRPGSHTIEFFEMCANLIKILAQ
AMPKα1 (h), sequence (Q9Y478 whole entry partner): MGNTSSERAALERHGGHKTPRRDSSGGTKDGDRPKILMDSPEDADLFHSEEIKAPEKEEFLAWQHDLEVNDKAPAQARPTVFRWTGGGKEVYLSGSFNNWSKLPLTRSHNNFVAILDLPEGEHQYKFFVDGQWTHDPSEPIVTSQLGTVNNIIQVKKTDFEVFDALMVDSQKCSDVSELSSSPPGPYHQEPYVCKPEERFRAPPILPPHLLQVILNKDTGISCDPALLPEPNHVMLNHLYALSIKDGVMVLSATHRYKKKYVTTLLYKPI
AMPKα1 (h), sequence (P54619 whole entry partner): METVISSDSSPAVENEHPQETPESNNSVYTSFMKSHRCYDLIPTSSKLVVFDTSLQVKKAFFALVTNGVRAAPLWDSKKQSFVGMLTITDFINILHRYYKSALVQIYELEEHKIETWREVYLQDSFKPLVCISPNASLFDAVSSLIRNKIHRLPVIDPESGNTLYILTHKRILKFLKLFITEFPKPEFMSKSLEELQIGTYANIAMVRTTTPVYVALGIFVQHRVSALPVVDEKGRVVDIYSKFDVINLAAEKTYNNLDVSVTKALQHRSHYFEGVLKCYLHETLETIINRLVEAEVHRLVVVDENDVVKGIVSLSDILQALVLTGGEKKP

Sequence	% activity (AMPKα1 (h)) [%]	% activity (FGFR4 (h)) [%]	% activity (Fer (h)) [%]	% activity (Fyn (h)) [%]	% activity (Itk (h)) [%]	% activity (NEK7 (h)) [%]	% activity (PKCγ (h)) [%]	% activity (RIPK2 (h)) [%]	% activity (ROCK-II (h)) [%]	% activity (TrkB (h)) [%]	% activity (ULK2 (h)) [%]	% activity (Ret(V804M) (h)) [%]	% activity (eEF-2K (h)) [%]
YARAAARQARAKALNRQLGVA (Mammalian) [MMI-0200]	108	75	101	75	98	96	101	98	85	7	132	–	–
HRRIKAWLKKIKALARQLGVAA (Mammalian) [MMI-0500]	35	3	196	83	7	89	6	30	2	12	124	36	43
FAKLAARLYRKALARQLGVAA [MMI-0300]	71	28	130	74	77	84	89	97	74	5	122	95	91
KAFAKLAARLYRKALARQLGVAA [MMI-0400]	87	19	108	54	63	87	79	98	77	8	131	87	43

Reference: patent US10500249B2, “Compositions and methods for preventing or treating diseases, conditions, or processes characterized by aberrant fibroblast proliferation and extracellular matrix deposition” (MOERAE MATRIX, INC., priority 2014, dated 2019)
